Assay results as given in the nanobody polyreactivity screen of Harvey et al. (2022).

Assay: yeast display, Sf9 membrane polyspecificity reagent, FACS + sequencing; frameworks hold sequencing errors
How it was run: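 Synthetic nanobody libraries on Saccharomyces cerevisiae BJ5465 were galactose-induced for 36–48 hours, stained 1 hour at 4 °C with 10% biotinylated, detergent-solubilized Sf9 membrane reagent and enriched on streptavidin microbeads. FACS then separated cells into low and high (top ~1%) gates by anti-HA (expression) and streptavidin (reagent binding) fluorescence. Genes were colony-PCR amplified, MiSeq 2 × 250 sequenced and CDR-length filtered. A clone's polyreactivity label is that of its gate of origin.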

Row | Sequence | polyreactivity (PSR sort gate)
1 | QVQLVESGAGLVQAGGSLRLSCAASGRTIGVYAMGWYRQAPGKERELVAAISWSGGTTYYADSVKGRFTISRDNAKNTVYLQMNSLKPEDTAVYYCAADSYTEVDYWGQGTQVTVSS | low polyreactivity
2 | QVQLVESGAGLVQAGGSLRLSCAASGRTVAWNAMGRYRQAPGKERELVAAISWSGTSTYYADSVKGRFTISRDNAKNTVYLQMNSLKPEDTAVYYCATSVKARQIYGYYYWGQGTQVSVSS | high polyreactivity
3 | QVQLVESGAGLVQAGGSLRLSCAASGSIFFSYAMGWSRQAPGKERELVAGINWSGGSTYADSVKGRFTISRDNAKNTVYLQMNSLKPEDTAVYYCAAKYYSERSRYHYWGQGTQVTVSS | low polyreactivity
4 | QVQLVESGAGLVQAGGSLRLSCAASGSIFGRDTMGWYRQAPGKERELVAAINLRGGSTYYADSVKGRFTISRDNAKNTVYLQMNSLKPEDTAVYYCATDGWKQSAYDYWGQGTQVTVSS | low polyreactivity
5 | QVQLVESGAGLVQAGGSLRLSCAASGSIFIHYAMGWYRQARGKERELVAAITGDGNTTYADSVKGRFTISRDNAQNTVNLQINSLKPEDTAVYYCAVTIVDYYWAFDYWGQGTQVTVSS | low polyreactivity
6 | QVQLVESGAGLVQAGGSLRLSCAASGSIFNYYAMVWYRQAPGKERELFAGITTSGGSTYYADSVKGSFTISRDNAKNSVYLQMKSLKPVDTAVYYCGAYDHISSTYFLDDSWGQGTQVTVSS | low polyreactivity
7 | QVQLVESGAGLVQAGGSLRLSCAASGSIFQPYAMGWYRQAPGKERELVAAISSSGGSTTYADSVKGRFTISRDNAKNTVYLQMNSLKPEDTADYYCAADSADDMGYWGQGTQVTVSS | low polyreactivity
8 | QVQLVESGAGLVQAGGSLRLSCAASGSIFVVYAMGWYRQAPWKERELVAAISWGIGSTYYADSVKGRFTISRDNAKNTVYLQMNSLKPEDTAVYYCAADTDIVLYDYWGQGTQVTVSS | low polyreactivity
9 | QVQLVESGAGLVQAGGSLRLSCAASGSILDEYAMGWYRQPPGKERELVAAISSSGTSTYYADSVKGRFTISRDNAKNTVYLQMNSLKPEDTAVYYCARVKQHTSHRVPGDDYWGQGTQLTVSS | low polyreactivity
10 | QVQLVESGAGLVQAGGSLRLSCAASGSIYTLNAMGWYRQAPGKEMELVAAITSSGTGTYYADSVKGRFTISRDNAKNTVYLQMNSLKPEDTAVYYCAKDRPYWLSYGSWFKFNYWGQGTQVTVSS | low polyreactivity
11 | QVQLVESGAGLVQAGGSLRLSCAASGSTFNHYAMGWYRPAPGKDRELVAAITWSGDSTYYADSVKGRFTISRDNAKNTVYLQMNSLKPEDTAVYDCNTYRIFGYSPYYAGYDYWGQGTQVTVSS | low polyreactivity
12 | QVQLVESGAGLVQAGGSLRLSCAASGSTFPVYAMGWYRQAPGKEREFVAAITYSGARTYYADSVKGRFTISRDNAKNTVYLQMNSLKPEDTAVYYCNAVPYRYLLHGTRCPFSRGYDSWGQGTQVTVSS | high polyreactivity
13 | QVQLVESGAGLVQAGGSLRLSCAASGSTFYFNGMGWYRQAPGKERELVAAISSTGNTYYADSVKGRFTISRDNAKNTVYLQMNSLKPEDTAVNDCLAGSSEAGYYWGHGTQVTVSS | high polyreactivity
14 | QVQLVESGAGLVQAGGSLRLSCAASGTTFWKYVMGWYRQAPGKERELVAAITSRGGSTYADSVKGRFTISRDNAKNSVYLQMNSLKPEDTAVYYCAATKFWYYGYDYWGQGTQVTVSS | low polyreactivity
15 | QVQLVESGAGLVQAGGSLRLSCAASGYIFRQYAMGRYRQAPGTEREFVAAISQTGGSTYYADSVKRRFTLSRDNAKNTVYFQMNSLKPVDTAVYYCAARYRGQRYRKLDYWGQGTQVTVSS | high polyreactivity
16 | QVQLVESGAGLVQAGGSLRLSCADSGSTFQPYAMGWYRQAPGKEREFVATISGSAGSKYYADSVKGRFKISRDNAKNTVYLQKNSLKPEDTAVYYCNADSGWFGYDYWGQGTQVTVSS | low polyreactivity
17 | QVQLVESGAGLVQAGGSLRLSCPASGYIFWWTALGWSRQQPGKERELVAGISWSGSTTYYADSVKGRFTISRDNAKNTVYLQMNSLNPEDTAVYYCNAADITLYDYDYWGQGTQVTVSS | low polyreactivity
18 | QVQLVESGAGLVQAGVSLRLSCAASGSILTDSAMGWYIQAPGKERELVATISNGGSTNYADSVKGRFTISRDNAKNTVYLKMNSLKPEDTAVYYCNAEPGVPSWELDYWGQGTQVTVSS | low polyreactivity
19 | QVQLVESGAGLVQARGSLRLSCAASGIILYVNAMGWYRQAPGKERELVAAISWGGGSTYYADSVKGRFTISRDNAKNNVYLQMNSLKPEDTAVYYCAAEFWSGYPTYTYDFWGQGTQVTVSS | low polyreactivity
20 | QVQLVESGAGLVQEGGSLRLICAASGRTFRGSDMGWYSPAPGKERELVAAITSGGSTNYADSVKGRFTISRDNAKNTVYLHMNSLKPEDPAVYYCNRDTSKYGLWRYIYDYWGQGTQVNVSS | low polyreactivity
21 | QVQLVESGEGLVQARGSLRLSCAASGYTFLGYAMGWYRQAPGKERELVAAINRSGSSTYYADSVKGRFTISRDNAKNTVYLQMNSLKPEDTAVYYCNARSGNRYGPRYDYWGQGTKVTVSS | high polyreactivity
22 | QVQLVESGGALDQAGGSLRLSCAASGRIFKWYAKGWYRQAPGKERELVATISWSGGSTYYADSVKGRFTISRDNAKKTVYLQMNSLKPEDTAVYYCNADTWLALPGFDYWGQGTQVTVSS | high polyreactivity

Row | Sequence | polyreactivity (PSR sort gate)
23 | QVQLVESGGALLQAGGSLRLSCAASGGTFDTYAMGWYRQAPGKERELDAVIRASGGDTYYADSVKGRFTISRDNAKNTVYLQMNSLKPEDTAVYYCAAVLPFKYDYWGQGTQVTVSS | low polyreactivity
24 | QVQLVESGGALLQAGGSLRLSCSASGRIFSANAMGWYRPAPGKERELVAAITYSGATTYYADSVKGRFTISRDNAKNTVYLQMTSLKPEDTAVYDCAADAGYTHYTAEEEYWGQGTQVTVSS | low polyreactivity
25 | QVQLVESGGALVQAGGILRLSCAASGRTFQYNVMGWYRQAPGKEREFVAAITWNGGSTYYADSVKGRFTISRDKAKNTVYLQMISLKPEDPAVYYCAARWTKKLEYGYWGQGTQVTVSS | low polyreactivity
26 | QVQLVESGGALVQAGGRLRLSCAASVYIQHKYAMGRYRQAPGKERDLVATISGGGGSTYYADSVKGRFTISRDNAKNTVYLQMNSLKPEDTSVYYCAKEYPWLPRSYEYWGQGTQVTVSS | low polyreactivity
27 | QVQLVESGGALVQAGGSLRLNCAASGRIFVYNDMGWYRQAPGNERDLVAAISSVGTTYYADSVKGRFTISRDNAKFTVYLQMKTLKPVETAVYDCDVTRYHSPPRYYFWGQGSQVTVSS | low polyreactivity
28 | QVQLVESGGALVQAGGSLRLSCAASGFTFAFYAMGWYRQAPGKERELVAAISSRGGSTYYADSVKGRFTISRDNAKITVYLQMNSLKPEDTAVYYCAARGYYSVVEYYYWGQGTQVTVSS | high polyreactivity
29 | QVQLVESGGALVQAGGSLRLSCAASGFTFSAYAMGWYRQAPVKEREMVASISRGGITNYADSVKGRFTISRDNAKNTVYLQMNSLQPEDTAFYYCAVDYSFRYDYVQRYYYWGQGTQVSVSS | high polyreactivity
30 | QVQLVESGGALVQAGGSLRLSCAASGIIFTPYAMGWYRQAPGKERQLLAAISWSGGRTYYADSVKGRFTISRDNAKNTVYLQMNSLKPEATAVYYCNARRYWWPHYYEYDYWGQGTHVTVSS | high polyreactivity
31 | QVQLVESGGALVQAGGSLRLSCAASGIIFYDYAMGWYRPAPGKERELVAAITWTGSSTYYADSVKGRFTISRDNAKITVYRQMNCLKQEDTAVSYCAADYWEYSPYEDLTYDYWGQGTQVTVSS | high polyreactivity
32 | QVQLVESGGALVQAGGSLRLSCAASGITFLYYAMGWYRQAPGKERELVAAISGGGASTYYADSVKGRFTISRDNAKNTVYLQMNSLKPEDTAVYYCAAGYRDFFRARFGYWGQGTQVTVSS | high polyreactivity
33 | QVQLVESGGALVQAGGSLRLSCAASGITFWKYTMGWYRQAPGKERELVASIRIGGSTYYADSVKGRFTISRDNAKNTVYLQMNSLKPEDTAVYYCATDSRLWGQGTQVTVSS | high polyreactivity
34 | QVQLVESGGALVQAGGSLRLSCAASGLIFYKYAMGWYRQAPGKERELVASISTGGGSTYYADSVKGRFTISRDNAKNTVYLQMNSLKPEDTAVYYCAARWWRRFRGSHSLYDYWGQGTLVTVSS | high polyreactivity
35 | QVQLVESGGALVQAGGSLRLSCAASGRIFASNGMGWYRQAPGKEREFVAAINRSGGSTYYADSVKGRFTISRDNAKNTVYLQMNSLKPEDTAVYYCNKDYLYSYLWGWKVYSYDYWGQGTQVTVSS | low polyreactivity
36 | QVQLVESGGALVQAGGSLRLSCAASGRIFIVYAMGWSRQAPGKERDLVAAITSSGGGTYYADSVKGRFTISRDNAKNTVYLQMNSLKQEDSAVFYCATRYPYRPGYEYWGQGTQVTVSS | low polyreactivity
37 | QVQLVESGGALVQAGGSLRLSCAASGRTFWDYAMGWYREAPGKERELVAAITWGGGSTYYADSVKGRFTISRDNAKNTVYLQMNSLKPVDTAVYYCAAGRGRHTYNYWGQGTQVTVTS | low polyreactivity
38 | QVQLVESGGALVQAGGSLRLSCAASGRTLGGYAMGWYRQAPGKERELVAAITRRGGTTYYADSVKGRFTISRDNAKNTVYLQMNSLKPEDTAVYYCAKYTVQYAISHYDYWGQGTQVTVSS | high polyreactivity
39 | QVQLVESGGALVQAGGSLRLSCAASGSIFFSYAMGWYRQAPGKERELVAAISTSGGNTYYADSVKGRFTISRDNAKHTVYLQMNSLKPEDTAVYYCNDRGSYPPYRSYGYWGQGTQVTVSS | low polyreactivity
40 | QVQLVESGGALVQAGGSLRLSCAASGSIFGLKDMRWYRPAPGKEREFVAAITWSGGSSTYYADSVKGRFTISRDNAKITVSLQMNSVKTEDTAVYYCAADDRTLPADVDYWGQGTQVTVSS | high polyreactivity
41 | QVQLVESGGALVQAGGSLRLSCAASGSIFWPNAMGWYRPAPGKERELVAAISWGTGSTYYADSVKGRFTISRDNAKNTVYLQMNSLKPEDTAVYYCAADGAYLDPYYDYWGQGTQVTVSS | low polyreactivity
42 | QVQLVESGGALVQAGGSLRLSCAASGSISWKNAMGWYRKAPGKERELVAAISSTVTYYADSVKGRFTISRDNAKNTVYLQMNRLKPADTAVYYCAAEYLAYTTLYTGDYWGQGTQVTVSS | low polyreactivity
43 | QVQLVESGGALVQAGGSLRLSCAASGSTFVYYAMGWYRQAPGKERELVAAISRSGTSTYYADSVKGRFTISRDNAKNTVYLQMNSLKPEDTAVYYCNARKKQGYDYWGQGTQVTVSS | high polyreactivity
